The text below walks through data of patent US20120027773A1 (AVEO PHARMACEUTICALS, published 2012).

Bounds are passed on as bounds.

Assay [1] concerns the target T1, recombinant human RON SEMA and PSI domains (human, UniProt Q04912 25-571).
T1 construct: domain: SEMA+PSI; Commercial protein (R&D Systems); also called rhRON SEMA+PSI; hRON SEMA+PSI
Nature of the assay: SPR, Ab captured on anti-human IgG Fc, 37 C; 37 C, n=1.

Assay [2] deals with T1, recombinant human RON SEMA and PSI …. Nature of the assay: SPR, Ab captured on anti-human IgG Fc, 37 C.
The target is the same in assay [3]. Nature of the assay: SPR, Ab captured on anti-human IgG Fc, 25 C.
For assay [4] the target is unchanged. Description: SPR, Ab captured on anti-mouse IgG, 37 C, AVG. Here is the method: (§1) The binding affinities and kinetics of binding of antibodies 07F01, 29B06, 17F06, 18H09, and 12B11 to recombinant human RON-ECD/mFc fusion protein (rhRON ECD/mFc) and recombinant human RON SEMA and PSI domains (rhRON SEMA+PSI) (R&D Systems, Inc., Minneapolis, Minn.) were measured by surface plasmon resonance, using a Biacore T100 instrument (GE Healthcare, Piscataway, N.J.).
(§2) Rabbit anti-mouse IgGs (GE Healthcare) were immobilized on carboxymethylated dextran CM4 sensor chips (GE Healthcare) by amine coupling, according to a standard protocol. Analyses were performed at 25° C. and 37° C., using PBS containing 0.05% surfactant P20 as running buffer. The antibodies were captured in individual flow cells at a flow rate of 10 μl/min. Injection time was varied for each antibody to yield an Rmax between 30 and 60 RU. 250 μg/mL mouse Fc were injected at 30 μl/min for 120 seconds to block non-specific binding of antibodies to Fc portion of the protein when needed. Buffer, rhRon ECD/mFc or rhRON SEMA+PSI diluted in running buffer was injected sequentially over a reference surface (no antibody captured) and the active surface (antibody to be tested) for 300 seconds at 60 μl/minute. The dissociation phase was monitored for up to 3600 seconds. The surface was then regenerated with two 60-second injections of 10 mM Glycine-HCl, pH 1.7, at a flow rate of 60 μl/min. The rhRON ECD/mFc or rhRON SEMA+PSI concentration range tested was 0.625 nM to 20 nM.

Assay [5] shares this target. Nature of the assay: ECL competition, MSP binding to coated hRON SEMA+PSI; competitor MSP; average. Here is the method: (§3) The biochemical neutralization assay measures inhibition of MSP binding to hRON by antibodies in hybridoma supernatants, using electrochemiluminescence (ECL). MA2400 96-well high binding plates (Meso Scale Discovery) were coated with 25 μl of 0.42 μg/mL hRON SEMA+PSI (an N-terminal portion of the ECD of hRON; R&D Systems) in PBS for one hour at room temperature with agitation. The plates were washed four times with PBS+0.1% Tween-20 (PBST), and blocked with 150 μl of charcoal-stripped fetal bovine serum (FBS) (Gibco). The hybridoma supernatant were added and incubated for 45 minutes at room temperature. After incubation, 5 μl of MSP (3 μg/mL) in charcoal stripped FBS was added to each well, and incubated for 45 minutes. The plate was washed four times with PBST, and 25 μl of 1 μg/mL biotinylated anti-MSP antibody (R&D Systems) was added to the plates for one hour at room temperature with agitation. The plates were washed four times with PBST, and incubated with 25 μl of 1 μg/mL ST-streptavidin (Meso Scale Discovery) for one hour at room temperature with agitation. The plates were washed four times with PBST, and 150 μl read buffer (Meso Scale Discovery) was added to each well before the plates were analyzed on a Sector Imager 2400 (Meso Scale Discovery) instrument. Antibodies 07F01, 18H09 and 29B06 each blocked MSP binding to hRON SEMA+PSI in this neutralization assay.
(§4) Antibodies 07F01, 12B11, 17F06, 18H09, and 29B06 were tested for inhibition of MSP binding to hRON SEMA+PSI, as measured by electrochemiluminescence (ECL) assay as described in Example 3. The antibodies (concentration range: 0.006-10 μg/mL) were incubated for 45 minutes at room temperature.

For assay [6], the target named is T2, human wild-type RON (cell surface) (human, UniProt Q04912 25-1400).
T2 construct: whole, on cells; also called Human RON; wt RON
Nature of the assay: FACS, 10 ug/ml antibody, PC3 cells, 4 C. On the procedure:
(§5) Binding to cell surface wild-type RON and delta 160 RON at 4° C. was determined for antibodies 07F01, 12B11, 17F06, 18H09, and 29B06, using FACS. Cells expressing wild-type RON (PC3), and cells expressing delta 160 RON (HT-29), were harvested using cell dissociation buffer (Invitrogen), washed twice with FACS buffer (0.5% BSA PBS) and treated with CytoQ Antibody diluent and FC receptor block (Innovex). Purified antibodies were diluted at a concentration of 10 μg/ml, in FACS buffer. Cells were incubated with 100 μl of antibody mix for one hour, washed with FACS buffer three times, and incubated for 45 minutes with goat anti-mouse PE conjugated antibody (Jackson Immunoresearch Laboratories). Cells were washed three times with FACS buffer, resuspended in 300 μl of FACS buffer and analyzed using a Beckman Coulter Cytomics FC 500 FACS instrument.

The target of assay [7] is T2, human wild-type RON (cell surface). Nature of the assay: cell-based or functional assay.
In assay [8] the target is T1, recombinant human RON SEMA and PSI …. Nature of the assay: ECL competition, MSP binding to coated hRON SEMA+PSI; competitor MSP; average n=3. Here is the method: as §3, §4
In assay [9] the target is T2, human wild-type RON (cell surface). Description: cell-based or functional assay. The source holds these as a separate data set.
Assay [10] has as its target T1, recombinant human RON SEMA and PSI …. Description: SPR, Ab captured on anti-mouse IgG, 25 C, AVG. On the procedure:
as §1, §2

Assay [11] has as its target T3, recombinant human RON-ECD/mFc fusion protein (human, UniProt Q04912 25-957).
T3 construct: extracellular domain; also called rhRON ECD/mFc; rhRon ECD/mFc; not shown: THXmFC: Thrombin/His tag/Factor Xa-AJ mouse IgG-Fc
Nature of the assay: SPR, Ab captured on anti-mouse IgG, 37 C, n=1. Here is the method:
as §1, §2
(§6) Kinetic parameters were determined using the kinetic function of the BIAevaluation software (GE Healthcare) with double reference subtraction. Kinetic parameters for each antibody, kₐ (association rate constant), kd (dissociation rate constant) and KD (equilibrium dissociation constant) were determined.

Assay [12] concerns the target T1, recombinant human RON SEMA and PSI …. Nature of the assay: ECL competition assay: antibody titrated on plate-coated hRON SEMA+PSI; blocked ligand MSP, detected with biotinylated anti-MSP antibody. On the procedure:
as §3, §4

In assay [13] the target is T3, recombinant human RON-ECD/mFc fusion …. Description: SPR, Ab captured on anti-mouse IgG, 25 C, AVG. Here is the method: as §1, §2, §6
Assay [14] concerns the target T4, delta 160 RON variant (cell surface) (human, UniProt Q04912 25-1400).
T4 construct: whole, on cells; Splice variant; also called delta 160 variant
Nature of the assay: FACS, 10 ug/ml antibody, HT-29 cells, 4 C. Here is the method:
as §5

The target of assay [15] is T3, recombinant human RON-ECD/mFc fusion …. Nature of the assay: SPR, Ab captured on anti-mouse IgG, 25 C, AVG; * Outside instrument limit of detection. On the procedure: as §1
(§7) Rabbit anti-mouse IgGs (GE Healthcare) were immobilized on carboxymethylated dextran CM4 sensor chips (GE Healthcare) by amine coupling, according to a standard protocol. Analyses were performed at 25° C. and 37° C., using PBS containing 0.05% surfactant P20 as running buffer. The antibodies were captured in individual flow cells at a flow rate of 10 μl/min. Injection time was varied for each antibody to yield an Rmax between 30 and 60 RU. 250 μg/mL mouse Fc were injected at 30 μl/min for 120 seconds to block non-specific binding of antibodies to Fc portion of the protein when needed. […] The dissociation phase was monitored for up to 3600 seconds. […]
as §6

For assay [16] the target is unchanged. Description: SPR, Ab captured on anti-mouse IgG, 25 C, AVG; * Outside instrument limit of detection; 25 C, AVG of n=3. Here is the method: as §1, §7, §6
The target is the same in assay [17]. Description: SPR, Ab captured on anti-mouse IgG, 37 C, AVG. Here is the method:
as §1, §2, §6

B1: RON6 (antibody, V domains shown)
VH: QVQLVQSGPEVKKSGSSVKVSCKASGGTFSSDAITWVRQAPGQGLEWMGGIIPILGMANYAQKFQGRVTITADKSTNTAYMELSSLRSEDTAVYFCARVADYYGLGTYYWYFDLWGRGTLVTVSS
VL: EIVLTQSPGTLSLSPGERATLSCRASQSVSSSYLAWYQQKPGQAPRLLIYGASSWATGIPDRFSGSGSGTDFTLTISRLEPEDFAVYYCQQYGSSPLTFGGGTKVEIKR
In the case of B1, the kon in assay [1] was 1.9e+08 M⁻¹ s⁻¹. Also, in [2], the Kd amounted to 1 nM and the off-rate (koff) is 0.19 s⁻¹. Also, in [3], the Kd was 1.1 nM, the koff came to 0.0026 s⁻¹ and the kon was 2.3e+06 M⁻¹ s⁻¹.

B2: 18H09 (antibody, mouse IgG1, V domains shown)
VH: EVQLQESGPSLVKPSQTLSLTCYVTGDSITSDYWNWIRKFPGNKLEYMGYISYSGSTYYNPSLKSRISITRDTSKNQFYLRLNSVTTEDTATYYCARTHILTIAYWGQGTLVTVSA
VL: QAVVTQESALTTSPGETVTLTCRSSAGAVTTSNFANWVQEKPDHLFTGLIGDTNIRAPGVPARFSGSLIGDKAALTITGAQTEDEAIYFCALWYSNHYWVFGGGTKLTVLG
notes: Murine hybridoma monoclonal, IgG1/lambda (IGLC1); also called antibody 18H09
B2: the Kd in assay [4] came out at 0.22 nM; in [10], 0.0086 nM; in assay [11], 0.4 nM; in assay [13], 0.22 nM. Besides, the koff in assay [4] came out at 0.00012 s⁻¹; in assay [10] it was 3.8e-06 s⁻¹; in [11], 0.0007 s⁻¹; in assay [13], 5.7e-05 s⁻¹. In addition, the kon was found to be 580000 M⁻¹ s⁻¹ in assay [4], 440000 M⁻¹ s⁻¹ in assay [10], 1.8e+06 M⁻¹ s⁻¹ in assay [11] and 330000 M⁻¹ s⁻¹ in [13]. Besides, in assay [5], the “Maximum Neutralization (%)” value worked out at 86.9%. Besides, the “PC3 % cell surface binding” value in assay [6] came to 99%. Further, the “Mean IC50 (nM), inhibition of MSP-dependent ERK phosphorylation, T47D cells” value in assay [7] was determined as 0.71 nM. Moreover, the IC50 in assay [8] amounted to 0.91 nM. The “Percent Inhibition of MSP-induced HPAF-II cell migration, antibody 2 ug/ml” value in [9] is 107%. The “IC50 (read off the curve)” value in assay [12] was about 0.7 nM. Also, in assay [14], the “HT-29 % cell surface binding” value stood at 98.3%.

B3: 17F06 (antibody, mouse IgG2a, V domains shown)
VH: EVKLVESGGGLVKPGASLKLSCAASGFIFSSYGMSWVRQTSDKRLEWVASISSGGGTTYYLDTVKGRFTISRENAKDTLYLQMSGLKSEDTALYYCTRGQWLLKFAYWGQGTLVTVSA
VL: QLVLTQSSSASFSLGASAKLTCTLSSQHTTYTIEWYQQLPLKPPKYVMELKKDGSHSTGVGIPDRFSGSSSGADRYLTISNIQPEDEAIYICGVGETIEDQFVYVFGGGTKVTVLG
notes: Murine hybridoma monoclonal, IgG2a/lambda (IGLC2); also called antibody 17F06
On to B3, for which the Kd in assay [15] is under 0.0588 nM; in [4], 0.13 nM; in [17] it was 0.21 nM; in assay [10], 0.009 nM. Moreover, the koff is 2.1e-05 s⁻¹ in assay [4], under 1e-05 s⁻¹ in assay [16], 2.4e-05 s⁻¹ in assay [17] and 1.4e-06 s⁻¹ in assay [10]. Moreover, the kon in assay [4] turned out to be 260000 M⁻¹ s⁻¹; in assay [17] it was 140000 M⁻¹ s⁻¹; in assay [10], 190000 M⁻¹ s⁻¹; in assay [13], 170000 M⁻¹ s⁻¹. For the same molecule, the “Maximum Neutralization (%)” value in assay [5] amounted to 7.9%. Further, in [6], the “PC3 % cell surface binding” value was found to be 99.1%. For the same molecule, the “Mean IC50 (nM), inhibition of MSP-dependent ERK phosphorylation, T47D cells” value in assay [7] came out at 0.96 nM. In assay [9], the “Percent Inhibition of MSP-induced HPAF-II cell migration, antibody 2 ug/ml” value amounted to 70.7%. In [14], the “HT-29 % cell surface binding” value was found to be 99%.
